Several values for one entry are separate records, joined by “and”; a condition that tells them apart may be missing. Equal values may be shown once.

Test [1] deals with C-reactive protein (CRP) (human) (UniProt P02741). As to the kind of experiment: ELISA, purified CFH variant on plate-coated CRP.
For test [2] the target is unchanged. As to the kind of experiment: ELISA, serum 1:1,000 on plate-coated CRP, detection with goat anti-human CFH. (In general: In an ELISA, binding on a coated surface is turned into a signal by an enzyme label.)

Chain of UniProt P02741 (P02741 19-224 limits assumed): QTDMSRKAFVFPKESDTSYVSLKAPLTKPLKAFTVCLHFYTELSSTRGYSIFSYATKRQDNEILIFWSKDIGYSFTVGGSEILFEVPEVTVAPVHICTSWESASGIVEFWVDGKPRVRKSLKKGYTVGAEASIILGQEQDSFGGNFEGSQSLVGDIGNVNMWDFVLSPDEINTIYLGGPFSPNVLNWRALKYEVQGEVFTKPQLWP

As to “Complement Factor H 402Y variant (CFH402Y), from human serum of TT homozygotes (from UniProt P08603 19-1231)”, the OD492 in test [1] was 0.763 OD492; in test [2] it was 0.532 OD492 and 0.609 OD492.

Source of the values: patent US20100143950A1.
